# Reference: IntAct's records for PubMed 22904686
# B1: Latent membrane protein 1 (Epstein-Barr virus (strain B95-8) (HHV-4)), P03230 (parent)
# chain: MEHDLERGPPGPRRPPRGPPLSSSLGLALLLLLLALLFWLYIVMSDWTGGALLVLYSFALMLIIIILIIFIFRRDLLCPLGALCILLLMITLLLIALWNLHGQALFLGIVLFIFGCLLVLGIWIYLLEMLWRLGATIWQLLAFFLAFFLDLILLIIALYLQQNWWTLLVDLLWLLLFLAILIWMYYHGQRHSDEHHHDDSLPHPQQATDDSGHESDSNSNEGRHHLLVSGAGDGPPLCSQNLGAPGGGPDNGPQDPDNTDDNGPQDPDNTDDNGPHDPLPQDPDNTDDNGPQDPDNTDDNGPHDPLPHSPSDSAGNDGGPPQLTEEVENKGGDQGPPLMTDGGGGHSHDSGHGGGDPHLPTLLLGSSGSGGDDDDPHGPVQLSYYD
# Variants of: B1
# Conditions: with tnik_human TNIK
row,Variant,effect of a mutation on the interaction
1,Y384G,disrupting interaction strength
